From publication PMC8808172 (The Journal of Biological Chemistry, 2021)

T1: ClpX N-terminal zinc-binding domain (ClpXN; amino acids 1–55) (E. coli, UniProt P0A6H1 1-55)
T1 sequence (looked up): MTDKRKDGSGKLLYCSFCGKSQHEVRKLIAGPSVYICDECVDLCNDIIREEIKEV

B1: ClpX(A30S) (enzyme)
chain: not shown
B2: ClpX (WT) (enzyme)
chain: not shown

Columns and labels:
SEC = target: the molecule itself; test: SEC
[1] = target: T1, ClpX N-terminal zinc-binding domain …; test: NMR titration
ClpX (WT) = target: B2; test: filter retention assay
ClpX(A30S) = target: B1; test: filter retention assay

Row | Binder | stoichiometry N (SEC) | other results
1 | B1 | 6 | –
2 | ClpX(H23A) (enzyme) not shown | 6 | –
3 | ClpX(L13A) (enzyme) not shown | 6 | –
4 | MKCPVCHQGEMVSGIKDIPYTFRGRKTVLKGIHG (domain or fragment, E. coli, UniProt Q46864 1-34, looked up) [MqsA_(1–34)] | – | binding result [1]: binds
5 | MKCPVCHQGEMVSGIKDIPYTFRGRKTVLKGIHG (domain or fragment, E. coli, UniProt Q46864 1-34, looked up) [Gfp-MqsA_(1–34)] | – | binding result (ClpX (WT)): binds; binding result (ClpX(A30S)): binds
6 | ClpX(L13D) (enzyme) not shown | 6 | –
7 | ClpX(L12S) (enzyme) not shown | 6 | –
8 | B2 | 6 | –
